Source: the Human Domainome abundance scans (Beltran et al. 2025)

B1: Ankyrin-3, residues 4094 to 4171; numbered along this chain, Q12955 (parent)
chain: MAIVADHLGLSWTELARELNFSVDEINQIRVENPNSLISQSFMLLKKWVTRDGKNATTDALTSVLTKINRIDIVTLLE

Variants of: B1
Test: abundance fitness (aPCA) (normalised: wild type 0, dead -1); higher = more abundant; growth selection in yeast, the domain comes from the species named
Conditions: Homo sapiens

Abundance fitness of substitutions, site by site:
T66: V 0.018; C -0.21; L -0.102; S -0.173; Q 0.118; H -0.013; K -0.1; A -0.14; W -0.173; I -0.088; N -0.112; M -0.054; E -0.182; G -0.126; R -0.07; P -0.535; F -0.052
R51: T -1.02; A -0.78; D -0.637; Y -0.773; P -0.77; K -0.531; H -0.848; Q -0.994; C -0.744; M -0.682; W -0.503; I -0.616; G -0.499; V -0.789; L -0.829
T62: V -0.057; R 0.068; M 0.06; A 0.039; Q -0.201; F -0.175; G -0.201; L -0.045; H -0.297; N -0.44; W -0.434; Y -0.12; E -0.297; P -0.102; C -0.292; I -0.386; K 0.097
A56: T -0.517; M -0.526; N -0.53; V -0.037; I -0.298; S -0.517; G -0.613; L -0.433; Y -0.353; F -0.304; C -0.271; R -0.506; K -0.175; W -0.458; H -0.296
T57: L -0.798; M -0.394; R -0.548; A -0.195; Q -0.298; W -0.931; D -0.108; H -0.176; V -0.124; Y -0.14; F -0.39; P -0.896; K -0.739; N 0.079; E -0.859; I -0.779; G -0.387; S -0.117
K54: D -0.233; F -0.156; V 0.038; S 0.049; I 0.065; E -0.132; R -0.064; Y -0.147; A -0.019; L -0.051; Q -0.054; W -0.21; H 0.037; N -0.316; M -0.1; C -0.088; P -0.107; T -0.121
K47: P -0.956; Y -0.39; Q -0.19; N -0.033; W -0.124; T -0.149; F -0.138; V -0.487; D -0.177; M -0.005; E -0.235; S -0.068; L -0.099; H -0.11; G -0.31
L65: V -0.779; K -0.528; D 0.076; M -0.651; Y -0.737; G -0.825; Q -1.05; F -0.752; E -0.824; R -0.902; I -0.847; S -0.884; P -0.701; W -0.901; N -0.426; A -1.14; H -0.973; C -0.505
D52: Q -0.359; Y -0.717; E -0.025; W -0.874; H -0.577; C -0.549; L -0.89; V -0.575; P -0.767; N -0.687; K -0.358; G -0.625; A -0.274; F -0.748; T -0.607; S -0.589; I -0.255
G53: C -0.545; K -0.145; V -0.672; E -0.111; Q -0.065; Y -0.962; H -0.3; D -0.578; F -0.728; P -0.149; S -0.325; R -0.367; W -0.849; T -0.521; L -0.832; M -0.772; A -0.457
